Source: patent US20120021923

**Q.** prostate-specific antigen (PSA) was tested. Which “Km (PSA-A buffer)” value (Ac-KGISSQY-AFC) did it give?
**A.** the Km value is estimated to be 1.73 mM

**Q.** And the “Km (PSA-B buffer)” value (Ac-KGISSQY-AFC)?
**A.** the Km value is estimated to be 0.47 mM

**Q.** And the “Vmax (PSA-A buffer)” value (Ac-KGISSQY-AFC)?
**A.** the Vmax is estimated to be 3.7 RLU/sec

**Q.** And the “Vmax (PSA-B buffer)” value (Ac-KGISSQY-AFC)?
**A.** the Vmax is estimated to be 2.33 RLU/sec

**Q.** And the “turnover rate by PSA” value (Ac-KGISSQY-AFC)?
**A.** the substrate of KGISSQY has a much higher turnover rate by PSA as compared to SKLQ

**Q.** What about the “turnover rate by PSA” value (SKLQ-aluc) of the same substance?
**A.** SKLQ on the other had appears to have a very slow turnover compared to KGISSQY and to be highly specific to PSA
